The values below are quoted from earlier work in PMC9381557.

This data set has as its target RAGE V domain (Homo sapiens) (UniProt Q15109).
Sequence of UniProt Q15109 (Q15109 23-116): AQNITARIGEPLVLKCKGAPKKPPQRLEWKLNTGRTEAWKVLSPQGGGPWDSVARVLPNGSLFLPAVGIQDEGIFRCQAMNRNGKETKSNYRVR

Turning to S100P (from UniProt P25815), the Kd was 6.8 µM.
